The test has as its target NCoR peptide (Homo sapiens, UniProt O75376). As to the kind of experiment: fluorescence polarization. (In general: Fluorescence polarisation rises when a labelled molecule tumbles more slowly, as on binding a larger partner.)

Sequence of NCoR peptide (O75376 whole entry): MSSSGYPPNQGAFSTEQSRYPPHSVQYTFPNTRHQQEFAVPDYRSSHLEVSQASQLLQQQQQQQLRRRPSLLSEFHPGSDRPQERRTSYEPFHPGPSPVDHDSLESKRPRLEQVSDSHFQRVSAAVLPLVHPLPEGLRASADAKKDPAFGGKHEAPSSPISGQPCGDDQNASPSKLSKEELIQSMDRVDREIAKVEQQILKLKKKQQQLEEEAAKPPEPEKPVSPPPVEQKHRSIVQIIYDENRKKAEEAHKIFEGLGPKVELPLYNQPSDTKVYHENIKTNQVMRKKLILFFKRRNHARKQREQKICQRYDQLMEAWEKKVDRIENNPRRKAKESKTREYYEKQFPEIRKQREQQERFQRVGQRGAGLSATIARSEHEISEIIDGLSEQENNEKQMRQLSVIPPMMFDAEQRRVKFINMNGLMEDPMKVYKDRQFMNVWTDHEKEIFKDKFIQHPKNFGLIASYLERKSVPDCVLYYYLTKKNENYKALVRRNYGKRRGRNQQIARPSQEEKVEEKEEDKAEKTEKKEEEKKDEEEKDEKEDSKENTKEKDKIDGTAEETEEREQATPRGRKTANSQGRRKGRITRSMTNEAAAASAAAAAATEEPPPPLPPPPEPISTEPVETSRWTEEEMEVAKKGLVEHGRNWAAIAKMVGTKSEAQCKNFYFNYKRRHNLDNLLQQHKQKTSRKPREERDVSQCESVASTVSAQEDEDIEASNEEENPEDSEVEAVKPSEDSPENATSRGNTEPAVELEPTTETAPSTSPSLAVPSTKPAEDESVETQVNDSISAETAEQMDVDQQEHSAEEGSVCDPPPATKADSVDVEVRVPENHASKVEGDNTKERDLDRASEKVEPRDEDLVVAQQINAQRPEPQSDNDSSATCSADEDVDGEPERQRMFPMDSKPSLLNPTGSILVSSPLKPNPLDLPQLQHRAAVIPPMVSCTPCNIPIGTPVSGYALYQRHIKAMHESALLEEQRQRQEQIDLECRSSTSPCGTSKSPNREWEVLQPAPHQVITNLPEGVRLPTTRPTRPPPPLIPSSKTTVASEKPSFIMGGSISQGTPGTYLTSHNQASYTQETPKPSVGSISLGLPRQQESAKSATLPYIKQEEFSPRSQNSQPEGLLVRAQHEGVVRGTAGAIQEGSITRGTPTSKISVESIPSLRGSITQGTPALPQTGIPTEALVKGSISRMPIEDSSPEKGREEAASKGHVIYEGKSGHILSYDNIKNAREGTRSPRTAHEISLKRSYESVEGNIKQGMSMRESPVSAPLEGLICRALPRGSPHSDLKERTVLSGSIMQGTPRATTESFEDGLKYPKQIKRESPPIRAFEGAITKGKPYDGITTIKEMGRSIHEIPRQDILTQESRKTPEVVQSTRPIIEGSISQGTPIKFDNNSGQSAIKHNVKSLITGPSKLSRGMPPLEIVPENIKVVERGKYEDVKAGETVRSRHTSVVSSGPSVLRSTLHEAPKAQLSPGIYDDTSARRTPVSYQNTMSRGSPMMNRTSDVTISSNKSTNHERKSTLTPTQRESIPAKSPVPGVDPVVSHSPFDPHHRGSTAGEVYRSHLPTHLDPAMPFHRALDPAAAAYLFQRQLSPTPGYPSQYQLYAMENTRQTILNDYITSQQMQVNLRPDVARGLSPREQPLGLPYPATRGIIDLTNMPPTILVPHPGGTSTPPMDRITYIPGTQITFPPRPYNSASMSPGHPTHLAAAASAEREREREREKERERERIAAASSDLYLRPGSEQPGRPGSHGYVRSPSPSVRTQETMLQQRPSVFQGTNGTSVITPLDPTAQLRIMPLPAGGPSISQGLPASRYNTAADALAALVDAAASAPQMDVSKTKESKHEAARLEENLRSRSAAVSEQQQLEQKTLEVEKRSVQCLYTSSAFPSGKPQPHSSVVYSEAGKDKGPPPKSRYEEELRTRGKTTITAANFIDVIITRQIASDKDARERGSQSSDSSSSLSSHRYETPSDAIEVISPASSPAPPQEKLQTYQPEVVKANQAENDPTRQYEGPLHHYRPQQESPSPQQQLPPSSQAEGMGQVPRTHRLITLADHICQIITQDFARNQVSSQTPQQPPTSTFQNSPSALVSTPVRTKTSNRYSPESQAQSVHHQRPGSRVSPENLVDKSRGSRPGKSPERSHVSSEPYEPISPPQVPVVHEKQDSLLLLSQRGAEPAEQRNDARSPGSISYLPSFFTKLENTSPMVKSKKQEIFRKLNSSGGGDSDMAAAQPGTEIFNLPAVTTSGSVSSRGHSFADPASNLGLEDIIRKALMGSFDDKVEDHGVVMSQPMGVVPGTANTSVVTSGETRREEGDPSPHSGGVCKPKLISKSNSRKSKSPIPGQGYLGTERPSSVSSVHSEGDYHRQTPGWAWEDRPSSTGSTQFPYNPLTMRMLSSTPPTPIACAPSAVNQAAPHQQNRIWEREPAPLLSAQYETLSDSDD

B1: PPARγ LBD LBD (protein)
chain: DLRALAKHLYDSYIKSFPLTKAKARAILTGKTTDKSPFVIYDMNSLMMGEDKIKFKHITPLQEQSKEVAIRIFQGCQFRSVEAVQEITEYAKSIPGFVNLDLNDQVTLLKYGVHEIIYTMLASLMNKDGVLISEGQGFMTREFLKSLRKPFGDFMEPKFEFAVKFNALELDDSDLAIFIAVIILSGDRPGLLNVKPIEDIQDNLLQALELQLKLNHPESSQLFAKLLQKMTDLRQIVTEHVQLLQVIKKTETDMSLHPLLQEIYKD
Turning to B1, the Kd – broadly, a measure of binding affinity in units of concentration – worked out at 1.4 µM.
